This note sets out measurements from article PMC12273918 (2025).

By Kd is commonly meant the equilibrium constant for the complex coming apart. Lower therefore signals higher affinity.

One experiment deals with T1, CD163 D1-D5 (Homo sapiens, UniProt Q86VB7).
T1 chain: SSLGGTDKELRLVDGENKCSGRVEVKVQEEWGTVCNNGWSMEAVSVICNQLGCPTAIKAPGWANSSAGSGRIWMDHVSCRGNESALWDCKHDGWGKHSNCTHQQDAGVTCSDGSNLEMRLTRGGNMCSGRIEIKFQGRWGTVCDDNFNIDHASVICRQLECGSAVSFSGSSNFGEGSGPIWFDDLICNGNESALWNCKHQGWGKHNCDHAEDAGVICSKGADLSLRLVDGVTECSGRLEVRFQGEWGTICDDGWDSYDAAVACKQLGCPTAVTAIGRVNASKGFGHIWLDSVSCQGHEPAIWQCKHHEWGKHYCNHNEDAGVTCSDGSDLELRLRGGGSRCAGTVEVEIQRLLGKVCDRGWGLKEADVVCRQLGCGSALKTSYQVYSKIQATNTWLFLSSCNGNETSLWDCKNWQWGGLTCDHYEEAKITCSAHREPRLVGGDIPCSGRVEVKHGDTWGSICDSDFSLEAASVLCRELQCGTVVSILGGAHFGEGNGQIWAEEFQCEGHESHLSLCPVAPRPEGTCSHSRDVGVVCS
In words: SPR.

The target in a further experiment is CD163 42-1045 (Homo sapiens, UniProt Q86VB7). Briefly: SPR. In general terms: Surface plasmon resonance follows binding to a sensor surface in real time, without labels.

B1: Haptoglobin(1-1)-hemoglobin complex (protein)
chain 1: VDSGNDVTDIADDGCPKPPEIAHGYVEHSVRYQCKNYYKLRTEGDGVYTLNDKKQWINKAVGDKLPECEADDGCPKPPEIAHGYVEHSVRYQCKNYYKLRTEGDGVYTLNNEKQWINKAVGDKLPECEAVCGKPKNPANPVQRILGGHLDAKGSFPWQAKMVSHHNLTTGATLINEQWLLTTAKNLFLNHSENATAKDIAPTLTLYVGKKQLVEIEKVVLHPNYSQVDIGLIKLKQKVSVNERVMPICLPSKDYAEVGRVGYVSGWGRNANFKFTDHLKYVMLPVADQDQCIRHYEGSTVPEKKTPKSPVGVQPILNEHTFCAGMSKYQEDTCYGDAGSAFAVHDLEEDTWYATGILSFDKSCAVAEYGVYVKVTSIQDWVQKTIAEN
chain 2: not shown
chain 3: not shown
modifications: Ca2+ (5 mM CaCl2), biotinylated Hp(1-1) immobilized
As to B1, the equilibrium dissociation constant (Kd) is ~684 nM with CD163 D1-D5 and ~72 nM in the experiment with CD163 42-1045.
